Our source for the Kd values is article PMC9871032 (2023).

The term Kd denotes the free concentration of one partner at which half of the binding sites on the other are occupied at equilibrium, for simple one-to-one binding.

For experiment [1], the target named is His-tagged ectodomain of human IL-2Rα (human) (UniProt P01589). Description: BLI; His-tagged IL-2Rα immobilised by amine coupling on AR2G biosensors; Octet RED96, 25 °C, D-PBS with 0.2% BSA and 0.05% Tween 20; two-fold dilutions (1.5-100 nM) of IL-2 and L72-FSY; dissociation 300 s; global 1:1 fit. In general terms: In BLI a coated tip is dipped into the sample, and binding shifts an interference pattern.

Experiment [2] deals with extracellular domain of IL-2Rβ (UniProt P14784). Put plainly: BLI; biosensors bearing the extracellular domain of IL-2Rβ; samples in a series of 3-fold dilutions.
The target of experiment [3] is dimeric IL-2 receptor (Homo sapiens) (UniProt P14784). The following applies: cited from earlier work.
The target in experiment [4] is IL-2Rα (Homo sapiens) (UniProt P01589). Conditions: cited from earlier work.
In experiment [5] the target is L72-FSY-IL-2 (human, UniProt P60568 21-153, L72-FSY, fluorosulfate-L-tyrosine (FSY) at 72). Description: BLI.

Chain of IL-2Rα (Homo sapiens) (P01589 22-240): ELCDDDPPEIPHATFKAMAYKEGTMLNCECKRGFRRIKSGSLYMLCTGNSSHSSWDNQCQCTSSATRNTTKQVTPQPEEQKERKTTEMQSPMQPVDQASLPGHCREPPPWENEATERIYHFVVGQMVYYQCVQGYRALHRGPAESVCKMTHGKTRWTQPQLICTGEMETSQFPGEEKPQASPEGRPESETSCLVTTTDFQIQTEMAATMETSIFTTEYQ

“L72-FSY-IL-2 (human IL-2 with fluorosulfate-L-tyrosine at position 72) (from UniProt P60568 21-153) (ligand)” showed a Kd in experiment [1] of 10.3 nM.

Turning to “N-terminally PEGylated L72-FSY-IL-2 (from UniProt P60568 21-153) (ligand)”, the results for the Kd in experiment [2] and in experiment [1] were 743 nM and 45.1 nM, respectively.

With IL-2 (from UniProt P60568), the values for the Kd in experiment [3] and in experiment [4] were 1 nM and 10 nM, respectively.

B1: extracellular domain of the β subunit of IL-2R (receptor)
chain: AVNGTSQFTCFYNSRANISCVWSQDGALQDTSCQVHAWPDRRRWNQTCELLPVSQASWACNLILGAPDSQKLTTVDIVTLRVLCREGVRWRVMAIQDFKPFENLRLMAPISLQVVHVETHRCNISWEISQASHYFERHLEFEARTLSPGHTWEEAPLLTLKQKQEWICLETLTPDTQYEFQVRVKPLQGEFTTWSPWSQPLAFRTKPAALGKDT
Regarding B1, binding in experiment [5] was characterised by a dissociation constant (Kd) of 70 nM.
